This test deals with T1, D25 antibody (IgG).
T1 construct: RSVF site 0 neutralising antibody, human IgG1 vector; The IgG was immobilised on the SPR chip; PDB 4JHW is cited; also called nAb D25
The test is described as follows: not stated (comparison value, FIG. 18 cited).

B1: prefusion stabilized RSVF (sc9-10 DS-Cav1 A149C Y458C S46G E92D S215P K465Q variant, DS2) (other)
chain: QNITEEFYQSTCSAVSKGYLGALRTGWYTSVITIELSNIKENKCNGTDAKVKLIKQELDKYKNAVTDLQLLMQSTPPTNNGSGSAICSGVAVCKVLHLEGEVNKIKSALLSTNKAVVSLSNGVSVLTFKVLDLKNYIDKQLLPILNKQSCSIPNIETVIEFQQKNNRLLEITREFSVNAGVTTPVSTYMLTNSELLSLINDMPITNDQKKLMSNNVQIVRQQSYSIMCIIKEEVLAYVVQLPLYGVIDTPCWKLHTSPLCTTNTKEGSNICLTRTDRGWYCDNAGSVSFFPQAETCKVQSNRVFCDTMNSLTLPSEINLCNVDIFNPKYDCKIMTSKTDVSSSVITSLGAIVSCYGKTKCTASNKNRGIIKTFSNGCDYVSNKGMDTVSVGNTLYCVNKQEGQSLYVKGEPIINFYDPLVFPSDEFDASISQVNEKINQSLAFIRKSDELL
notes: also called preRSVF; prefusion RSVF
For B1, the equilibrium dissociation constant (Kd) – broadly, the free concentration of one partner at which half of the binding sites on the other are occupied at equilibrium, for simple one-to-one binding – turned out to be 150 µM.

These data come from patent US20220249649A1 (ECOLE POLYTECHNIQUE FEDERALE DE LAUSANNE, published 2022).
